Experimental data from patent US20220204580A1 (AstraZeneca / MedImmune, published 2022).
Blank lines part the entries; values can stand above or below the binder they belong to. Numbered stars: 1 amine (or outer) side, 2 acyl side, 3 side chain; on linkers, the order of the positions; unused ones are H or OH. Bridge positions count the residues as written; N and C are the ends. Square brackets hold non-standard residues; d marks the D form. Side chains are listed from the residue outwards. Ends that are not written are not given here. * marks the point of attachment. C18 diacid = O=C(O)CCCCCCCCCCCCCCCCC(=O)*; γGlu = O=C(O)[C@H](CCC(=O)[*:2])N[*:1]; αMeF = C[C@](N)(Cc1ccccc1)C(=O)O; αMeS = C[C@](N)(CO)C(=O)O; Aib = CC(C)(N)C(=O)O

How the values were obtained:
[1] = target: T1, human calcitonin receptor (human, UniProt P30988 25-474); experiment: cell-based or functional assay
T1 sequence (looked up): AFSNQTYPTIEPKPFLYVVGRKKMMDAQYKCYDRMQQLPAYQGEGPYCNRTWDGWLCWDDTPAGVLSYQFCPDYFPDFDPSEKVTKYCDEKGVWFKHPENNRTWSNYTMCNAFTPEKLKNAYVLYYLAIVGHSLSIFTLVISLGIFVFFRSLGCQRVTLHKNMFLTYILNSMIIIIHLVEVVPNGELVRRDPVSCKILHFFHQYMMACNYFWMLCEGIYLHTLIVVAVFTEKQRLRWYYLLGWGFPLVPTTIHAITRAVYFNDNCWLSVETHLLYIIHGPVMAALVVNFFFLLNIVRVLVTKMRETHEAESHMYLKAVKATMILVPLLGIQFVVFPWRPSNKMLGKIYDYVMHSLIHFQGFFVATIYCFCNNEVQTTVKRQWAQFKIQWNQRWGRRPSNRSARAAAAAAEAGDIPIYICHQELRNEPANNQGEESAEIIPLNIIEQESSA

[2] = target: T2, human amylin receptor (calcitonin receptor co-expressed with receptor activity modifying protein, RAMP3) (human, UniProt P30988 25-474; O60896 24-148); experiment: cell-based or functional assay
T2 sequence (looked up) 1: T1 sequence (looked up)
T2 sequence (looked up) 2: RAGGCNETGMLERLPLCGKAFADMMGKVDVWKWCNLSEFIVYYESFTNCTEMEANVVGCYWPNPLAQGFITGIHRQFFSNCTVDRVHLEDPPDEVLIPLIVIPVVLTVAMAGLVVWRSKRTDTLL

B2: Peptide 21 (SEQ ID NO: 21) (peptide)
peptide: K([γGlu-γGlu-C18 diacid])CNTATCATQRLANFLVHSSNN[αMeF]GPILPPTNVGSRTY-NH2
modifications: disulfide 2-7; N-terminus assumed
SMILES: CC[C@H](C)[C@H](NC(=O)[C@@H]1CCCN1C(=O)CNC(=O)[C@](C)(Cc1ccccc1)NC(=O)[C@H](CC(N)=O)NC(=O)[C@H](CC(N)=O)NC(=O)[C@H](CO)NC(=O)[C@H](CO)NC(=O)[C@H](Cc1c[nH]cn1)NC(=O)[C@@H](NC(=O)[C@H](CC(C)C)NC(=O)[C@H](Cc1ccccc1)NC(=O)[C@H](CC(N)=O)NC(=O)[C@H](C)NC(=O)[C@H](CC(C)C)NC(=O)[C@H](CCCNC(=N)N)NC(=O)[C@H](CCC(N)=O)NC(=O)[C@@H](NC(=O)[C@H](C)NC(=O)[C@@H]1CSSC[C@H](NC(=O)[C@@H](N)CCCCNC(=O)CC[C@H](NC(=O)CC[C@H](NC(=O)CCCCCCCCCCCCCCCCC(=O)O)C(=O)O)C(=O)O)C(=O)N[C@@H](CC(N)=O)C(=O)N[C@@H]([C@@H](C)O)C(=O)N[C@@H](C)C(=O)N[C@@H]([C@@H](C)O)C(=O)N1)[C@@H](C)O)C(C)C)C(=O)N[C@@H](CC(C)C)C(=O)N1CCC[C@H]1C(=O)N1CCC[C@H]1C(=O)N[C@H](C(=O)N[C@@H](CC(N)=O)C(=O)N[C@H](C(=O)NCC(=O)N[C@@H](CO)C(=O)N[C@@H](CCCNC(=N)N)C(=O)N[C@H](C(=O)N[C@@H](Cc1ccc(O)cc1)C(N)=O)[C@@H](C)O)C(C)C)[C@@H](C)O
EC50 (cAMP production) [1]: 3.41 nM
EC50 (cAMP production) [2]: 0.136 nM
Ratio (EC50 hCTR / EC50 hAMYR3) [2]: 25

B3: Peptide 4 (SEQ ID NO: 4) (peptide)
peptide: {C18 diacid}-[γGlu][γGlu]GGGKCNTATCATQRLANFLVHSSNNFGPILPPTNVGSNTY-NH2
modifications: disulfide 7-12
EC50 (cAMP production) [1]: 7.53 nM
EC50 (cAMP production) [2]: 0.248 nM
Ratio (EC50 hCTR / EC50 hAMYR3) [2]: 30

B5: Peptide 19 (SEQ ID NO: 19) (peptide)
peptide: K([γGlu-C18 diacid])CNTATCATQRLANFLRHSSNN[αMeF]GPILPPTNVGSNTY-NH2
modifications: disulfide 2-7; N-terminus assumed
SMILES: CC[C@H](C)[C@H](NC(=O)[C@@H]1CCCN1C(=O)CNC(=O)[C@](C)(Cc1ccccc1)NC(=O)[C@H](CC(N)=O)NC(=O)[C@H](CC(N)=O)NC(=O)[C@H](CO)NC(=O)[C@H](CO)NC(=O)[C@H](Cc1c[nH]cn1)NC(=O)[C@H](CCCNC(=N)N)NC(=O)[C@H](CC(C)C)NC(=O)[C@H](Cc1ccccc1)NC(=O)[C@H](CC(N)=O)NC(=O)[C@H](C)NC(=O)[C@H](CC(C)C)NC(=O)[C@H](CCCNC(=N)N)NC(=O)[C@H](CCC(N)=O)NC(=O)[C@@H](NC(=O)[C@H](C)NC(=O)[C@@H]1CSSC[C@H](NC(=O)[C@@H](N)CCCCNC(=O)CC[C@H](NC(=O)CCCCCCCCCCCCCCCCC(=O)O)C(=O)O)C(=O)N[C@@H](CC(N)=O)C(=O)N[C@@H]([C@@H](C)O)C(=O)N[C@@H](C)C(=O)N[C@@H]([C@@H](C)O)C(=O)N1)[C@@H](C)O)C(=O)N[C@@H](CC(C)C)C(=O)N1CCC[C@H]1C(=O)N1CCC[C@H]1C(=O)N[C@H](C(=O)N[C@@H](CC(N)=O)C(=O)N[C@H](C(=O)NCC(=O)N[C@@H](CO)C(=O)N[C@@H](CC(N)=O)C(=O)N[C@H](C(=O)N[C@@H](Cc1ccc(O)cc1)C(N)=O)[C@@H](C)O)C(C)C)[C@@H](C)O
EC50 (cAMP production) [1]: 4.04 nM
EC50 (cAMP production) [2]: 0.278 nM
Ratio (EC50 hCTR / EC50 hAMYR3) [2]: 15

B7: Peptide 22 (SEQ ID NO: 22) (peptide)
peptide: K([γGlu-γGlu-C18 diacid])CNTATCATQRLANFLVHS[αMeS]NNFGPILPPTNVGSNTY-NH2
modifications: disulfide 2-7
EC50 (cAMP production) [1]: 6.54 nM
EC50 (cAMP production) [2]: 0.162 nM
Ratio (EC50 hCTR / EC50 hAMYR3) [2]: 40

More lines, now with the values ahead:

EC50 (cAMP production) [1]: 2.8 nM
EC50 (cAMP production) [2]: 0.409 nM
Ratio (EC50 hCTR / EC50 hAMYR3) [2]: 7
B1: Peptide 26 (SEQ ID NO: 26) (peptide)
peptide: K([γGlu-γGlu-C18 diacid])CNTATCATQRLANFL[Aib]HSSNN[αMeF]GPILPPTNVGSNTY-NH2
modifications: disulfide 2-7; N-terminus assumed
SMILES: CC[C@H](C)[C@H](NC(=O)[C@@H]1CCCN1C(=O)CNC(=O)[C@](C)(Cc1ccccc1)NC(=O)[C@H](CC(N)=O)NC(=O)[C@H](CC(N)=O)NC(=O)[C@H](CO)NC(=O)[C@H](CO)NC(=O)[C@H](Cc1c[nH]cn1)NC(=O)C(C)(C)NC(=O)[C@H](CC(C)C)NC(=O)[C@H](Cc1ccccc1)NC(=O)[C@H](CC(N)=O)NC(=O)[C@H](C)NC(=O)[C@H](CC(C)C)NC(=O)[C@H](CCCNC(=N)N)NC(=O)[C@H](CCC(N)=O)NC(=O)[C@@H](NC(=O)[C@H](C)NC(=O)[C@@H]1CSSC[C@H](NC(=O)[C@@H](N)CCCCNC(=O)CC[C@H](NC(=O)CC[C@H](NC(=O)CCCCCCCCCCCCCCCCC(=O)O)C(=O)O)C(=O)O)C(=O)N[C@@H](CC(N)=O)C(=O)N[C@@H]([C@@H](C)O)C(=O)N[C@@H](C)C(=O)N[C@@H]([C@@H](C)O)C(=O)N1)[C@@H](C)O)C(=O)N[C@@H](CC(C)C)C(=O)N1CCC[C@H]1C(=O)N1CCC[C@H]1C(=O)N[C@H](C(=O)N[C@@H](CC(N)=O)C(=O)N[C@H](C(=O)NCC(=O)N[C@@H](CO)C(=O)N[C@@H](CC(N)=O)C(=O)N[C@H](C(=O)N[C@@H](Cc1ccc(O)cc1)C(N)=O)[C@@H](C)O)C(C)C)[C@@H](C)O

EC50 (cAMP production) [1]: 0.589 nM
EC50 (cAMP production) [2]: 0.238 nM
Ratio (EC50 hCTR / EC50 hAMYR3) [2]: 2
B4: Peptide 23 (SEQ ID NO: 23) (peptide)
peptide: K([γGlu-γGlu-C18 diacid])CNTATCATQRLANFLVHSSNN[αMeF]GPILPPTEVGSNTY-NH2
modifications: disulfide 2-7; N-terminus assumed
SMILES: CC[C@H](C)[C@H](NC(=O)[C@@H]1CCCN1C(=O)CNC(=O)[C@](C)(Cc1ccccc1)NC(=O)[C@H](CC(N)=O)NC(=O)[C@H](CC(N)=O)NC(=O)[C@H](CO)NC(=O)[C@H](CO)NC(=O)[C@H](Cc1c[nH]cn1)NC(=O)[C@@H](NC(=O)[C@H](CC(C)C)NC(=O)[C@H](Cc1ccccc1)NC(=O)[C@H](CC(N)=O)NC(=O)[C@H](C)NC(=O)[C@H](CC(C)C)NC(=O)[C@H](CCCNC(=N)N)NC(=O)[C@H](CCC(N)=O)NC(=O)[C@@H](NC(=O)[C@H](C)NC(=O)[C@@H]1CSSC[C@H](NC(=O)[C@@H](N)CCCCNC(=O)CC[C@H](NC(=O)CC[C@H](NC(=O)CCCCCCCCCCCCCCCCC(=O)O)C(=O)O)C(=O)O)C(=O)N[C@@H](CC(N)=O)C(=O)N[C@@H]([C@@H](C)O)C(=O)N[C@@H](C)C(=O)N[C@@H]([C@@H](C)O)C(=O)N1)[C@@H](C)O)C(C)C)C(=O)N[C@@H](CC(C)C)C(=O)N1CCC[C@H]1C(=O)N1CCC[C@H]1C(=O)N[C@H](C(=O)N[C@@H](CCC(=O)O)C(=O)N[C@H](C(=O)NCC(=O)N[C@@H](CO)C(=O)N[C@@H](CC(N)=O)C(=O)N[C@H](C(=O)N[C@@H](Cc1ccc(O)cc1)C(N)=O)[C@@H](C)O)C(C)C)[C@@H](C)O

EC50 (cAMP production) [1]: 1.25 nM
EC50 (cAMP production) [2]: 0.105 nM
Ratio (EC50 hCTR / EC50 hAMYR3) [2]: 12
B6: Peptide 25 (SEQ ID NO: 25) (peptide)
peptide: K([γGlu-C18 diacid])CNTATCATQRLANFLVHSSNN[αMeF]GPILPPTRVGSNTY-NH2
modifications: disulfide 2-7; N-terminus assumed
SMILES: CC[C@H](C)[C@H](NC(=O)[C@@H]1CCCN1C(=O)CNC(=O)[C@](C)(Cc1ccccc1)NC(=O)[C@H](CC(N)=O)NC(=O)[C@H](CC(N)=O)NC(=O)[C@H](CO)NC(=O)[C@H](CO)NC(=O)[C@H](Cc1c[nH]cn1)NC(=O)[C@@H](NC(=O)[C@H](CC(C)C)NC(=O)[C@H](Cc1ccccc1)NC(=O)[C@H](CC(N)=O)NC(=O)[C@H](C)NC(=O)[C@H](CC(C)C)NC(=O)[C@H](CCCNC(=N)N)NC(=O)[C@H](CCC(N)=O)NC(=O)[C@@H](NC(=O)[C@H](C)NC(=O)[C@@H]1CSSC[C@H](NC(=O)[C@@H](N)CCCCNC(=O)CC[C@H](NC(=O)CCCCCCCCCCCCCCCCC(=O)O)C(=O)O)C(=O)N[C@@H](CC(N)=O)C(=O)N[C@@H]([C@@H](C)O)C(=O)N[C@@H](C)C(=O)N[C@@H]([C@@H](C)O)C(=O)N1)[C@@H](C)O)C(C)C)C(=O)N[C@@H](CC(C)C)C(=O)N1CCC[C@H]1C(=O)N1CCC[C@H]1C(=O)N[C@H](C(=O)N[C@@H](CCCNC(=N)N)C(=O)N[C@H](C(=O)NCC(=O)N[C@@H](CO)C(=O)N[C@@H](CC(N)=O)C(=O)N[C@H](C(=O)N[C@@H](Cc1ccc(O)cc1)C(N)=O)[C@@H](C)O)C(C)C)[C@@H](C)O
